Target: KIX domain (residues 568-672) of mouse CBP (mouse) (UniProt P45481)
Experiment: NMR titration

Sequence of KIX domain (residues 568-672) of mouse CBP (mouse) (P45481 568-672): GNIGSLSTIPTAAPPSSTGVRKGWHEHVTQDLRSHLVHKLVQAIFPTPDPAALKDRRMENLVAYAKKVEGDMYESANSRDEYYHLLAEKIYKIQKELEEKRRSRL

Kd: 214 µM
Substance: p53(14-28) (from UniProt P04637 14-28) (peptide)

— PMC2765525
